Article PMC4349727, “Redox-dependent chaperone/peroxidase function of 2-Cys-Prx from the cyanobacterium Anabaena PCC7120: role in oxidative stress tolerance” (BMC Plant Biology, 2015)
One block for each compound: values may come before it.

Key:
Alr4641 (2-Cys-Prx) = target: T1, Alr4641 (2-Cys-Prx) (Nostoc sp. PCC 7120 = FACHB-418, UniProt A0ACD7RYC4); assay: NTRC-dependent peroxidase assay, NADPH oxidation at […] nm; format: biochemical; settings: 100 uM peroxide; NTRC of Anabaena PCC7120 as reductant with NADPH
T1 construct: full length, 203 residues, 23 kD, N-terminal His-tag (pET16b), expressed in E. coli BL21pLysS; decamer/dodecamer
T1 sequence (A0ACD7RYC4 1-203): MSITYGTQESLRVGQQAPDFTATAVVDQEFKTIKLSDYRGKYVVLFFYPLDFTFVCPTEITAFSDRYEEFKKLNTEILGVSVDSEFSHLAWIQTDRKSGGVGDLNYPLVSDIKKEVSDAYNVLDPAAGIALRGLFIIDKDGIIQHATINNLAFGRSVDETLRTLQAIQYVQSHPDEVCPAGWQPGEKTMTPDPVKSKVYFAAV

[1] = target: Alr4641 (typical 2-Cys-Prx of Anabaena PCC7120), His-tagged, wild type (Anabaena PCC7120); assay: SDS-PAGE under reducing or non-reducing conditions; 12% SDS-PAGE of purified proteins with or without DTT (10 mM); shows the inter-subunit disulfide dimer
[2] = target: Alr4641 over-expressed in Anabaena PCC7120 (strain An4641+) (Anabaena PCC7120); assay: non-reducing SDS-PAGE with Western blot; cell free extracts of Anabaena (wild type after MV, H2O2, t-Bx or γ-radiation and recovery; An4641+; AnC56S+) on non-reducing SDS-PAGE, probed with Alr4641 antiserum; shows the disulfide dimer
[3] = target: Alr4641, endogenous in wild-type Anabaena PCC7120 (Anabaena PCC7120 (endogenous)); assay: as above
[4] = target: Alr4641 (typical 2-Cys-Prx of Anabaena PCC7120), His-tagged, wild type (Anabaena PCC7120); assay: SPR; Autolab Esprit; about 250 response units of Alr4641 immobilised on bare gold chip by EDC-NHS; NTRC injected at 4.33, 8.66, 10.39 and 12.99 μM, 33.3 μL/min, 300 s; 20°C; 10 mM HEPES, 100 mM NaCl, pH 7.5; equilibrium analysis

Compound: CC(C)(OO)c1ccccc1 [Cux, cumeme hydroperoxide]
NTRC-dependent peroxidase assay, NADPH oxidation at 340 nm (Alr4641 (2-Cys-Prx)): best activity was observed with H2O2 followed by t-butyl hydroperoxide and cumeme hydroperoxide

Compound: CC(C)(C)OO [t-Bx, t-butyl hydroperoxide]
NTRC-dependent peroxidase assay, NADPH oxidation at 340 nm (Alr4641 (2-Cys-Prx)): best activity was observed with H2O2 followed by t-butyl hydroperoxide and cumeme hydroperoxide

stoichiometry N [1]: 2
Compound: Alr4641 (typical 2-Cys-Prx of Anabaena PCC7120), His-tagged, wild type (enzyme)

stoichiometry N [2]: 2
Compound: Alr4641 over-expressed in Anabaena PCC7120 (strain An4641+) (enzyme)

stoichiometry N [3]: 2
Compound: Alr4641, endogenous in wild-type Anabaena PCC7120 (enzyme)

Kd [4]: 1.04 µM
Compound: NADPH-dependent thioredoxin reductase (NTRC) from Anabaena PCC7120, His-tagged (enzyme)
